Measurements reported in patent US20240132578A1.

Legend:
Assay in all cases: cell-based or functional assay
[1] = target: HIV-1 92RW020 envelope (Env) on pseudovirus (HIV-1)
[2] = target: HIV-1 92TH021 envelope (Env) on pseudovirus (HIV-1)
[3] = target: HIV-1 92UG024 envelope protein (Env) on pseudovirus (HIV-1)
[4] = target: HIV-1 APV6 Env (HIV-1)
[5] = target: HIV-1 Env of isolate MGRM-D-008 (clade D pseudovirus) (HIV-1)
[6] = target: HIV-1 Env of isolate MGRM-G-014 (subtype G) (HIV-1)
[7] = target: HIV-1 Env of isolate MGRM-G-016 (subtype G) (HIV-1)
[8] = target: HIV-1 Env of isolate NL43, clade B (HIV-1)
[9] = target: HIV-1 Env of isolate THR0.18 (Acute), clade B (HIV-1)
[10] = target: HIV-1 Env of pseudovirus MGRM-G-015 (HIV-1)
[11] = target: HIV-1 MGRM-AE-004 Env (pseudovirus) (HIV-1)
[12] = target: HIV-1 MGRM-D-018 envelope protein (Env) on pseudovirus (HIV-1)
[13] = target: HIV-1 envelope glycoprotein (Env) of isolate MGRM-C-022 (HIV-1)
[14] = target: HIV-1 Env of isolate MGRM-F1-016 (pseudovirus) (HIV-1)
[15] = target: HIV-1 envelope glycoprotein (Env) of isolate 92WR009, subtype A (HIV-1)
[16] = target: HIV-1 envelope glycoprotein (Env) of isolate 92WR020, subtype A (HIV-1)
[17] = target: HIV-1 JR-CSF Env N396A (HIV-1 (isolate JR-CSF)) (UniProt P20871)
[18] = target: HIV-1 MGRM-AG-005 envelope protein (Env) on pseudovirus (HIV-1)
[19] = target: HIV-1 MGRM-D-001 envelope protein (Env) on pseudovirus (HIV-1)
[20] = target: HIV-1 Env of isolate MG RM-A-005 (pseudovirus) (HIV-1)
[21] = target: HIV-1 Env of isolate MG RM-A-006 (pseudovirus) (HIV-1)
[22] = target: HIV-1 Env of isolate MG RM-A-008 (pseudovirus) (HIV-1)
[23] = target: HIV-1 Env of pseudovirus isolate JR-FL (clade B) (HIV-1)
[24] = target: HIV-1 Env of pseudovirus isolate MGRM-Chronic-B-002 (clade B) (HIV-1)
[25] = target: HIV-1 Env of isolate 92RW008 (pseudovirus) (HIV-1)
[26] = target: HIV-1 Env of isolate MGRM-A-004 (pseudovirus) (HIV-1)
[27] = target: HIV-1 Env of isolate MGRM-A-006 (pseudovirus) (HIV-1)
[28] = target: HIV-1 Env of isolate MGRM-A-010 (subtype A) (HIV-1)
[29] = target: HIV-1 Env of isolate MGRM-AG-011 (subtype AG) (HIV-1)
[30] = target: HIV-1 Env of isolate MGRM-Chronic-B-004 (HIV-1)
[31] = target: HIV-1 Env of isolate MGRM-F1-004 (HIV-1)
[32] = target: HIV-1 Env of isolate MGRM-F1-014 (HIV-1)
[33] = target: HIV-1 Env of isolate MGRM-F1-015 (HIV-1)
[34] = target: HIV-1 Env of pseudovirus isolate MGRM-C-026 (clade C) (HIV-1)

Chain of 4993_K13 (PGT-141) (antibody) (VH): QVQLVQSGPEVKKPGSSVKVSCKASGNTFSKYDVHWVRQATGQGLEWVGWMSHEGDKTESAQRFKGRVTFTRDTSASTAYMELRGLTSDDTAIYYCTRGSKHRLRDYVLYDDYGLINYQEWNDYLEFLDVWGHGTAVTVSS
Chain of 4993_K13 (PGT-141) (antibody) (VL): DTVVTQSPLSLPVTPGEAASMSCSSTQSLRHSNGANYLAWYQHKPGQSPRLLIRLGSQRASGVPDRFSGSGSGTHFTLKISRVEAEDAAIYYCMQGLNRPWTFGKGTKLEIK
Chain of 4970_K22 (PGT-144) (antibody) (VH): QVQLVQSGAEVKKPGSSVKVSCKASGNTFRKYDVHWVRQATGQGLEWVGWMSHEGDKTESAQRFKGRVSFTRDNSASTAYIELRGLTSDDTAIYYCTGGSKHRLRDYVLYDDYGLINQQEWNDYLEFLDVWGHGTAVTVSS
Chain of 4970_K22 (PGT-144) (antibody) (VL): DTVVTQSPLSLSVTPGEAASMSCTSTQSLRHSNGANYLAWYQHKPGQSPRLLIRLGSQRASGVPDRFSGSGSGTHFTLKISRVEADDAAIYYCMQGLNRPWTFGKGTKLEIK
Chain of 4995_P16 (PGT-145) (antibody) (VH): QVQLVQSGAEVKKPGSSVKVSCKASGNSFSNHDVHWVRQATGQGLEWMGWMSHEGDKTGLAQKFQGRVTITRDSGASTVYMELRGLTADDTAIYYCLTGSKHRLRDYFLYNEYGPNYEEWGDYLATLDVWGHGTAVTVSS
Chain of 4995_P16 (PGT-145) (antibody) (VL): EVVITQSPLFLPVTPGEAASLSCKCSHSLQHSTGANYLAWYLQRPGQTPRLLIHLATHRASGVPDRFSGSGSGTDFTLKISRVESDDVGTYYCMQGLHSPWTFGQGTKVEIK
Chain of 4995_E20 (PGT-142) (antibody) (VH): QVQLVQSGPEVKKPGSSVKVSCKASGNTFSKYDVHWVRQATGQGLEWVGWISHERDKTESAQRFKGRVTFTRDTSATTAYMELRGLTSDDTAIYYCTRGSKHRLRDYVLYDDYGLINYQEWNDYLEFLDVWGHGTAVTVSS
Chain of 4980_N08 (PGT-143) (antibody) (VH): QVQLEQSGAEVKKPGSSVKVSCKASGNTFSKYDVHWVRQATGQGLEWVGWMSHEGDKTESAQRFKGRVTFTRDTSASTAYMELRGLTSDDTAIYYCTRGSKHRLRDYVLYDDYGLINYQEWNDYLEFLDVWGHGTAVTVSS
Chain of 4980_N08 (PGT-143) (antibody) (VL): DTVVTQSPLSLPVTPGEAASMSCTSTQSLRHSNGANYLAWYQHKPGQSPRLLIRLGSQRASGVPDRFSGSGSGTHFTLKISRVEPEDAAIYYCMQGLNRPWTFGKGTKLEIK

Row | Substance | IC50 (ug/mL), pseudovirus neutralization [3] [µg/mL] | IC50, pseudovirus neutralization [4] [µg/mL] | IC50 (µg/mL), pseudovirus neutralization [6] [µg/mL] | IC50 (µg/mL), pseudovirus neutralization [7] [µg/mL] | IC50 (ug/mL), pseudovirus neutralization [12] [µg/mL] | IC50 (µg/mL), pseudovirus neutralization [14] [µg/mL] | IC50, pseudovirus neutralization [15] [µg/mL] | IC50, pseudovirus neutralization [16] [µg/mL] | Fold IC50 increase relative to wild-type (pseudovirus neutralization) [17] [fold] | IC50 (ug/mL), pseudovirus neutralization [18] [µg/mL] | IC50 (ug/mL), pseudovirus neutralization [19] [µg/mL] | IC50 (µg/mL), pseudovirus neutralization [25] [µg/mL] | IC50 (µg/mL), pseudovirus neutralization [26] [µg/mL] | IC50 (µg/mL), pseudovirus neutralization [27] [µg/mL] | IC50, pseudovirus neutralization [28] [µg/mL] | IC50, pseudovirus neutralization [29] [µg/mL] | IC50 (µg/mL), pseudovirus neutralization [30] [µg/mL] | IC50 (µg/mL), pseudovirus neutralization [31] [µg/mL] | IC50 (µg/mL), pseudovirus neutralization [32] [µg/mL] | IC50 (µg/mL), pseudovirus neutralization [33] [µg/mL] | other results
1 | 1496_C09 (PG9) (TCN-109) (antibody) | 1.91 | 0.214 | 16.5 | 1.36 | 0.0444 |  |  |  |  |  |  |  |  |  |  |  |  |  |  |  | neutralization IC50 [1]: 0.0637 µg/mL; neutralization IC50 [2]: 0.111 µg/mL; IC50, pseudovirus neutralization [5]: 6.86 µg/mL; IC50 (µg/ml), pseudovirus neutralization [8]: 0.32 µg/mL; IC50 (µg/ml), pseudovirus neutralization [9]: 12.4 µg/mL; IC50 (µg/ml), pseudovirus neutralization [10]: 1.51 µg/mL; IC50 (µg/ml), pseudovirus neutralization [11]: 0.01 µg/mL; IC50 (µg/ml), pseudovirus neutralization [13]: 0.19 µg/mL
2 | 4838_L06 (PGT-121) (antibody) | > 10 |  |  |  |  | 0.931 | 1.74 | 0.004 |  |  |  |  |  |  |  |  |  |  |  |  | 
3 | 4858_P08 (PGT-123) (antibody) | > 10 | 0.0327 |  |  | 0.0047 | 4.95 | 15.7 | 0.002 | 1.2 | 0.104 | 0.215 |  |  |  |  |  |  |  |  |  | 
4 | 4877_D15 (PGT-122) (antibody) | > 10 | 0.0851 |  |  | 0.0115 | 4.81 | 42.4 | 0.009 |  | > 10 | 0.867 |  |  |  |  |  |  |  |  |  | 
5 | 4970_K22 (PGT-144) (antibody) |  |  | 0.562 | > 50 |  |  |  |  |  |  |  |  |  |  |  |  |  |  |  |  | IC50 (µg/mL), single-round pseudovirus neutralization [20]: 18.6 µg/mL; IC50 (µg/mL), single-round pseudovirus neutralization [21]: > 50 µg/mL; IC50 (µg/mL), single-round pseudovirus neutralization [22]: > 50 µg/mL; IC50, pseudovirus neutralization [23]: > 50 µg/mL; IC50, pseudovirus neutralization [24]: > 50 µg/mL
6 | 4980_N08 (PGT-143) (antibody) |  |  | 0.107 | 7.6 |  |  |  |  |  |  |  |  |  |  |  |  |  |  |  |  | IC50 (µg/mL), single-round pseudovirus neutralization [20]: 7.48 µg/mL; IC50 (µg/mL), single-round pseudovirus neutralization [21]: > 50 µg/mL; IC50 (µg/mL), single-round pseudovirus neutralization [22]: > 50 µg/mL; IC50, pseudovirus neutralization [23]: > 50 µg/mL; IC50, pseudovirus neutralization [24]: > 50 µg/mL
7 | 4993_K13 (PGT-141) (antibody) |  |  | 0.222 | 4.69 |  |  |  |  |  |  |  |  |  |  |  |  |  |  |  |  | IC50 (µg/mL), single-round pseudovirus neutralization [20]: 11.1 µg/mL; IC50 (µg/mL), single-round pseudovirus neutralization [21]: > 50 µg/mL; IC50 (µg/mL), single-round pseudovirus neutralization [22]: > 50 µg/mL; IC50, pseudovirus neutralization [23]: > 50 µg/mL; IC50, pseudovirus neutralization [24]: > 50 µg/mL
8 | 4995_E20 (PGT-142) (antibody) |  |  | 0.076 | 8.17 |  |  |  |  |  |  |  |  |  |  |  |  |  |  |  |  | IC50 (µg/mL), single-round pseudovirus neutralization [20]: 9.7 µg/mL; IC50 (µg/mL), single-round pseudovirus neutralization [21]: > 50 µg/mL; IC50 (µg/mL), single-round pseudovirus neutralization [22]: > 50 µg/mL; IC50, pseudovirus neutralization [23]: > 50 µg/mL; IC50, pseudovirus neutralization [24]: > 50 µg/mL
9 | 4995_P16 (PGT-145) (antibody) |  |  | 0.144 | 0.081 |  |  |  |  |  |  |  |  |  |  |  |  |  |  |  |  | IC50 (µg/mL), single-round pseudovirus neutralization [20]: 0.128 µg/mL; IC50 (µg/mL), single-round pseudovirus neutralization [21]: > 50 µg/mL; IC50 (µg/mL), single-round pseudovirus neutralization [22]: > 50 µg/mL; IC50, pseudovirus neutralization [23]: 30.4 µg/mL; IC50, pseudovirus neutralization [24]: 3.67 µg/mL
10 | 5114_A19 (PGT-128) (antibody) |  |  |  |  |  |  |  |  | 0.9 |  |  | 0.003 | > 50 | > 50 | 0.005 | 3.93 | 0.009 | 0.027 | 0.277 | > 50 | IC50, pseudovirus neutralization [34]: 0.007 µg/mL
11 | 5123_A06 (PGT-125) (antibody) | > 10 | 0.0359 |  |  | 0.0382 | > 50 | 0.144 | 0.004 | 1.6 | > 10 | 2.31 |  |  |  |  |  |  |  |  |  | 
12 | 5136_H01 (PGT-131) (antibody) |  |  |  |  |  |  |  |  | 0.9 |  |  | 1.01 | > 50 | > 50 | 0.01 | > 50 | 0.04 | 0.114 | > 50 | > 50 | IC50, pseudovirus neutralization [34]: 1.67 µg/mL
13 | 5141_B17 (PGT-126) (antibody) | > 10 | 0.0249 |  |  | 0.0093 | > 50 | > 50 | 0.006 | 1.7 | 1.35 | 0.0639 |  |  |  |  |  |  |  |  |  | 
14 | 5145_B14 (PGT-127) (antibody) |  |  |  |  |  | > 50 | > 50 | 0.01 | 2.4 |  |  |  |  |  |  |  |  |  |  |  | 
15 | 5147_N06 (PGT-130) (antibody) | > 10 | > 10 |  |  | 0.0378 |  |  |  | 1 | 0.947 | > 10 | 0.039 | > 50 | > 50 | 0.005 | > 50 | 0.01 | 0.023 | 11.8 | > 50 | IC50, pseudovirus neutralization [34]: 0.036 µg/mL
16 | 5329_C19 (PGT-136) (antibody) | 0.0915 |  |  |  | > 10 |  |  |  |  | > 10 | > 10 | > 50 | > 50 | > 50 | > 50 | > 50 | > 50 | > 50 | > 50 | > 50 | IC50, pseudovirus neutralization [34]: 0.006 µg/mL
17 | 5343_B08 (PGT-135) (antibody) | 0.0139 |  |  |  | 0.0433 |  |  |  | 1 | > 10 | > 10 | 1.42 | > 50 | > 50 | > 50 | > 50 | > 50 | 0.211 | > 50 | 1.11 | IC50, pseudovirus neutralization [34]: 0.004 µg/mL
18 | 5345_I01 (PGT-137) (antibody) |  |  |  |  |  |  |  |  |  |  |  | 0.148 | > 50 | > 50 | > 50 | > 50 | > 50 | 40.3 | > 50 | > 50 | IC50, pseudovirus neutralization [34]: 0.011 µg/mL
19 | PGV04 (antibody) |  |  | 0.056 | 0.019 |  |  |  |  |  |  |  |  |  |  |  |  |  |  |  |  | 
